Results reported in patent US20210388087A1 (Chugai, published 2021).

target: T1, Human CD137 ECD (human); assay: single mutant vs template dBBDu183H
T1 construct: also called 4-1BB
T1 sequence (chain, as listed by the source limits assumed): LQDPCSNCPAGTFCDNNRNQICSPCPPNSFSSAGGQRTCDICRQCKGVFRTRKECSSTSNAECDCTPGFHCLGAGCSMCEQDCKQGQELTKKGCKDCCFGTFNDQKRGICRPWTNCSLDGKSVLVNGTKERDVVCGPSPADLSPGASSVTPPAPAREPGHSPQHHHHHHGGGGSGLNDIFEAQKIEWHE

| Binder | fold change of affinity |
| --- | --- |
| H183/L072 VH Y59F (antibody, name in Kabat numbering, V domains shown) VH: QVQLVESGGGLVQPGRSLRLSCAASGFTFSNAWMHWVRQAPGKGLEWVAQIKDKGNAYAAYFAPSVKGRFTISRDDSKNSIYLQMNSLKTEDTAVYYCHYVHYASASTVLPAFGVDAWGQGTTVTVSS VL: DIVMTQSPLSLPVTPGEPASISCQASQELVHMNRNTYLHWYQQKPGQAPRLLIYKVSNRFPGVPDRFSGSGSGTDFTLKISRVEAEDVGVYYCAQGTSVPFTFGQGTKLEIK | 1.5 fold |
| H183/L072 VH Y59M (antibody, name in Kabat numbering, V domains shown) VH: QVQLVESGGGLVQPGRSLRLSCAASGFTFSNAWMHWVRQAPGKGLEWVAQIKDKGNAYAAYMAPSVKGRFTISRDDSKNSIYLQMNSLKTEDTAVYYCHYVHYASASTVLPAFGVDAWGQGTTVTVSS VL: DIVMTQSPLSLPVTPGEPASISCQASQELVHMNRNTYLHWYQQKPGQAPRLLIYKVSNRFPGVPDRFSGSGSGTDFTLKISRVEAEDVGVYYCAQGTSVPFTFGQGTKLEIK | 1.1 fold |
| H183/L072 VH Y59T (antibody, name in Kabat numbering, V domains shown) VH: QVQLVESGGGLVQPGRSLRLSCAASGFTFSNAWMHWVRQAPGKGLEWVAQIKDKGNAYAAYTAPSVKGRFTISRDDSKNSIYLQMNSLKTEDTAVYYCHYVHYASASTVLPAFGVDAWGQGTTVTVSS VL: DIVMTQSPLSLPVTPGEPASISCQASQELVHMNRNTYLHWYQQKPGQAPRLLIYKVSNRFPGVPDRFSGSGSGTDFTLKISRVEAEDVGVYYCAQGTSVPFTFGQGTKLEIK | 0.8 fold |
| H183/L072 VH Y59W (antibody, name in Kabat numbering, V domains shown) VH: QVQLVESGGGLVQPGRSLRLSCAASGFTFSNAWMHWVRQAPGKGLEWVAQIKDKGNAYAAYWAPSVKGRFTISRDDSKNSIYLQMNSLKTEDTAVYYCHYVHYASASTVLPAFGVDAWGQGTTVTVSS VL: DIVMTQSPLSLPVTPGEPASISCQASQELVHMNRNTYLHWYQQKPGQAPRLLIYKVSNRFPGVPDRFSGSGSGTDFTLKISRVEAEDVGVYYCAQGTSVPFTFGQGTKLEIK | 1.5 fold |
| H183/L072 VH Y59P (antibody, name in Kabat numbering, V domains shown) VH: QVQLVESGGGLVQPGRSLRLSCAASGFTFSNAWMHWVRQAPGKGLEWVAQIKDKGNAYAAYPAPSVKGRFTISRDDSKNSIYLQMNSLKTEDTAVYYCHYVHYASASTVLPAFGVDAWGQGTTVTVSS VL: DIVMTQSPLSLPVTPGEPASISCQASQELVHMNRNTYLHWYQQKPGQAPRLLIYKVSNRFPGVPDRFSGSGSGTDFTLKISRVEAEDVGVYYCAQGTSVPFTFGQGTKLEIK | 0.3 fold |
| H183/L072 VH Y59Q (antibody, name in Kabat numbering, V domains shown) VH: QVQLVESGGGLVQPGRSLRLSCAASGFTFSNAWMHWVRQAPGKGLEWVAQIKDKGNAYAAYQAPSVKGRFTISRDDSKNSIYLQMNSLKTEDTAVYYCHYVHYASASTVLPAFGVDAWGQGTTVTVSS VL: DIVMTQSPLSLPVTPGEPASISCQASQELVHMNRNTYLHWYQQKPGQAPRLLIYKVSNRFPGVPDRFSGSGSGTDFTLKISRVEAEDVGVYYCAQGTSVPFTFGQGTKLEIK | 0.8 fold |
| H183/L072 VH Y59I (antibody, name in Kabat numbering, V domains shown) VH: QVQLVESGGGLVQPGRSLRLSCAASGFTFSNAWMHWVRQAPGKGLEWVAQIKDKGNAYAAYIAPSVKGRFTISRDDSKNSIYLQMNSLKTEDTAVYYCHYVHYASASTVLPAFGVDAWGQGTTVTVSS VL: DIVMTQSPLSLPVTPGEPASISCQASQELVHMNRNTYLHWYQQKPGQAPRLLIYKVSNRFPGVPDRFSGSGSGTDFTLKISRVEAEDVGVYYCAQGTSVPFTFGQGTKLEIK | 0.7 fold |
| H183/L072 VH Y59R (antibody, name in Kabat numbering, V domains shown) VH: QVQLVESGGGLVQPGRSLRLSCAASGFTFSNAWMHWVRQAPGKGLEWVAQIKDKGNAYAAYRAPSVKGRFTISRDDSKNSIYLQMNSLKTEDTAVYYCHYVHYASASTVLPAFGVDAWGQGTTVTVSS VL: DIVMTQSPLSLPVTPGEPASISCQASQELVHMNRNTYLHWYQQKPGQAPRLLIYKVSNRFPGVPDRFSGSGSGTDFTLKISRVEAEDVGVYYCAQGTSVPFTFGQGTKLEIK | 0.9 fold |
| H183/L072 VH Y94I (antibody, name in Kabat numbering, V domains shown) VH: QVQLVESGGGLVQPGRSLRLSCAASGFTFSNAWMHWVRQAPGKGLEWVAQIKDKGNAYAAYYAPSVKGRFTISRDDSKNSIYLQMNSLKTEDTAVYYCHIVHYASASTVLPAFGVDAWGQGTTVTVSS VL: DIVMTQSPLSLPVTPGEPASISCQASQELVHMNRNTYLHWYQQKPGQAPRLLIYKVSNRFPGVPDRFSGSGSGTDFTLKISRVEAEDVGVYYCAQGTSVPFTFGQGTKLEIK | 0 fold |
| H183/L072 VH Y59V (antibody, name in Kabat numbering, V domains shown) VH: QVQLVESGGGLVQPGRSLRLSCAASGFTFSNAWMHWVRQAPGKGLEWVAQIKDKGNAYAAYVAPSVKGRFTISRDDSKNSIYLQMNSLKTEDTAVYYCHYVHYASASTVLPAFGVDAWGQGTTVTVSS VL: DIVMTQSPLSLPVTPGEPASISCQASQELVHMNRNTYLHWYQQKPGQAPRLLIYKVSNRFPGVPDRFSGSGSGTDFTLKISRVEAEDVGVYYCAQGTSVPFTFGQGTKLEIK | 0.8 fold |
| H183/L072 VH Y59G (antibody, name in Kabat numbering, V domains shown) VH: QVQLVESGGGLVQPGRSLRLSCAASGFTFSNAWMHWVRQAPGKGLEWVAQIKDKGNAYAAYGAPSVKGRFTISRDDSKNSIYLQMNSLKTEDTAVYYCHYVHYASASTVLPAFGVDAWGQGTTVTVSS VL: DIVMTQSPLSLPVTPGEPASISCQASQELVHMNRNTYLHWYQQKPGQAPRLLIYKVSNRFPGVPDRFSGSGSGTDFTLKISRVEAEDVGVYYCAQGTSVPFTFGQGTKLEIK | 0.9 fold |
| H183/L072 VH Y59S (antibody, name in Kabat numbering, V domains shown) VH: QVQLVESGGGLVQPGRSLRLSCAASGFTFSNAWMHWVRQAPGKGLEWVAQIKDKGNAYAAYSAPSVKGRFTISRDDSKNSIYLQMNSLKTEDTAVYYCHYVHYASASTVLPAFGVDAWGQGTTVTVSS VL: DIVMTQSPLSLPVTPGEPASISCQASQELVHMNRNTYLHWYQQKPGQAPRLLIYKVSNRFPGVPDRFSGSGSGTDFTLKISRVEAEDVGVYYCAQGTSVPFTFGQGTKLEIK | 0.8 fold |
| H183/L072 VH Y59N (antibody, name in Kabat numbering, V domains shown) VH: QVQLVESGGGLVQPGRSLRLSCAASGFTFSNAWMHWVRQAPGKGLEWVAQIKDKGNAYAAYNAPSVKGRFTISRDDSKNSIYLQMNSLKTEDTAVYYCHYVHYASASTVLPAFGVDAWGQGTTVTVSS VL: DIVMTQSPLSLPVTPGEPASISCQASQELVHMNRNTYLHWYQQKPGQAPRLLIYKVSNRFPGVPDRFSGSGSGTDFTLKISRVEAEDVGVYYCAQGTSVPFTFGQGTKLEIK | 0.8 fold |
| H183/L072 VH Y59L (antibody, name in Kabat numbering, V domains shown) VH: QVQLVESGGGLVQPGRSLRLSCAASGFTFSNAWMHWVRQAPGKGLEWVAQIKDKGNAYAAYLAPSVKGRFTISRDDSKNSIYLQMNSLKTEDTAVYYCHYVHYASASTVLPAFGVDAWGQGTTVTVSS VL: DIVMTQSPLSLPVTPGEPASISCQASQELVHMNRNTYLHWYQQKPGQAPRLLIYKVSNRFPGVPDRFSGSGSGTDFTLKISRVEAEDVGVYYCAQGTSVPFTFGQGTKLEIK | 1.1 fold |
| H183/L072 VH Y94L (antibody, name in Kabat numbering, V domains shown) VH: QVQLVESGGGLVQPGRSLRLSCAASGFTFSNAWMHWVRQAPGKGLEWVAQIKDKGNAYAAYYAPSVKGRFTISRDDSKNSIYLQMNSLKTEDTAVYYCHLVHYASASTVLPAFGVDAWGQGTTVTVSS VL: DIVMTQSPLSLPVTPGEPASISCQASQELVHMNRNTYLHWYQQKPGQAPRLLIYKVSNRFPGVPDRFSGSGSGTDFTLKISRVEAEDVGVYYCAQGTSVPFTFGQGTKLEIK | 0 fold |
| H183/L072 VH Y59H (antibody, name in Kabat numbering, V domains shown) VH: QVQLVESGGGLVQPGRSLRLSCAASGFTFSNAWMHWVRQAPGKGLEWVAQIKDKGNAYAAYHAPSVKGRFTISRDDSKNSIYLQMNSLKTEDTAVYYCHYVHYASASTVLPAFGVDAWGQGTTVTVSS VL: DIVMTQSPLSLPVTPGEPASISCQASQELVHMNRNTYLHWYQQKPGQAPRLLIYKVSNRFPGVPDRFSGSGSGTDFTLKISRVEAEDVGVYYCAQGTSVPFTFGQGTKLEIK | 0.8 fold |
| H183/L072 VH Y97A (antibody, name in Kabat numbering, V domains shown) VH: QVQLVESGGGLVQPGRSLRLSCAASGFTFSNAWMHWVRQAPGKGLEWVAQIKDKGNAYAAYYAPSVKGRFTISRDDSKNSIYLQMNSLKTEDTAVYYCHYVHAASASTVLPAFGVDAWGQGTTVTVSS VL: DIVMTQSPLSLPVTPGEPASISCQASQELVHMNRNTYLHWYQQKPGQAPRLLIYKVSNRFPGVPDRFSGSGSGTDFTLKISRVEAEDVGVYYCAQGTSVPFTFGQGTKLEIK | 0 fold |
| H183/L072 VH Y94A (antibody, name in Kabat numbering, V domains shown) VH: QVQLVESGGGLVQPGRSLRLSCAASGFTFSNAWMHWVRQAPGKGLEWVAQIKDKGNAYAAYYAPSVKGRFTISRDDSKNSIYLQMNSLKTEDTAVYYCHAVHYASASTVLPAFGVDAWGQGTTVTVSS VL: DIVMTQSPLSLPVTPGEPASISCQASQELVHMNRNTYLHWYQQKPGQAPRLLIYKVSNRFPGVPDRFSGSGSGTDFTLKISRVEAEDVGVYYCAQGTSVPFTFGQGTKLEIK | 0 fold |
| H183/L072 VH Y59K (antibody, name in Kabat numbering, V domains shown) VH: QVQLVESGGGLVQPGRSLRLSCAASGFTFSNAWMHWVRQAPGKGLEWVAQIKDKGNAYAAYKAPSVKGRFTISRDDSKNSIYLQMNSLKTEDTAVYYCHYVHYASASTVLPAFGVDAWGQGTTVTVSS VL: DIVMTQSPLSLPVTPGEPASISCQASQELVHMNRNTYLHWYQQKPGQAPRLLIYKVSNRFPGVPDRFSGSGSGTDFTLKISRVEAEDVGVYYCAQGTSVPFTFGQGTKLEIK | 1 fold |
| H183/L072 VH Y94P (antibody, name in Kabat numbering, V domains shown) VH: QVQLVESGGGLVQPGRSLRLSCAASGFTFSNAWMHWVRQAPGKGLEWVAQIKDKGNAYAAYYAPSVKGRFTISRDDSKNSIYLQMNSLKTEDTAVYYCHPVHYASASTVLPAFGVDAWGQGTTVTVSS VL: DIVMTQSPLSLPVTPGEPASISCQASQELVHMNRNTYLHWYQQKPGQAPRLLIYKVSNRFPGVPDRFSGSGSGTDFTLKISRVEAEDVGVYYCAQGTSVPFTFGQGTKLEIK | 0 fold |
| H183/L072 VH Y94M (antibody, name in Kabat numbering, V domains shown) VH: QVQLVESGGGLVQPGRSLRLSCAASGFTFSNAWMHWVRQAPGKGLEWVAQIKDKGNAYAAYYAPSVKGRFTISRDDSKNSIYLQMNSLKTEDTAVYYCHMVHYASASTVLPAFGVDAWGQGTTVTVSS VL: DIVMTQSPLSLPVTPGEPASISCQASQELVHMNRNTYLHWYQQKPGQAPRLLIYKVSNRFPGVPDRFSGSGSGTDFTLKISRVEAEDVGVYYCAQGTSVPFTFGQGTKLEIK | 3.2 fold |
